# Reference: a protein production outcome set (Wang et al. 2014)
# Assay: label from the status in PepcDB records
# 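Also: failed if final PepcDB status was selected cloned or expressed and not failed if soluble or beyond.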
row,Sequence,protein production
1,MTEHCGAIKYFKSNFRRKRCLDFVCLTNLMFGLGSTPHGQVERADENNTLDLNNLPDDPSRDIFPFFEEGGFREKQTKDGKEYECRFCSLKFFKSQALGGHMNRHRQERETESLNKARELVLRNDSFPPHQGPPSFSYHQGDVHIGDLTQFKPMMYPPRHFSLPGSSSILQLQPPYLYPPLSSPFPQHNTNIGNNGTRHQTLTNSVCGGRALPDSSYTFIGAPVANGSRVAPHLPPHHGL,failed
2,MTEHSSDYYQRLVDESALEEFLTREIGPAETFDVARHEQGHSNETLFVTWGDRELVVRRPPPGQTAETAHDVLREYRVIDALQDTAVPVPPTVTACDDQTIIGSDFYVMARVEGTVIRDDEPARFGSDDARAAVGTELVDTLAAIHEVDPTAVGLSDLGRADGYAKRQVARWGKQLAWAFERTAESRTIPELERVGSWLQDECPDDHPKTLVHGDYKLDNVMFGPGDDPELAAVFDWEMATLGDPRADLGWLLSYWRDAKDPEPEIPDLAMEFIEAPGYLTRTDLVDRWEAQTGLTFEHERFYRTLAVYKLAALGEMFYRRYLEGNADDPFYPLMEDRVPALANRAVRIIEGDEPL,failed
3,MTEKEKMLAEKWYDANFDQYLINERARAKDICFELNHTRPSATNKRKELIDQLFQTTTDNVSISIPFDTDYGWNVKLGKNVYVNTNCYFMDGGQITIGDNVFIGPNCGFYTATHPLNFHHRNEGFEKAGPIHIGSNTWFGGHVAVLPGVTIGEGSVIGAGSVVTKDIPPHSLAVGNPCKVVRKIDNDLPSETLNDETIK,not failed
4,MTEMHRLLQRQLKKFGFTADGLPQNLESWTQFIAHINKTYYENDQDRYLLERSIDISSKEMRDINAKLEYAQDIAQIGYWHYDADTDTATWSKGLFKILGLPPSNVALNYSSFLDLVHPNDKAGLKNVVEKALKEKEDYDYELRVRNGDNDYKWYRTIARANPHKNEISGVLMDISKRKIIEEQVHELNNKLVSTARLAGMSEVATSILHNVGNILNSVNVSAIILKKNISKIHYKKLSAIKTMLDENINQLSEYLLQNPKGKLILPYLDALSKTLHEEYEENMKESNSLETNINHIKEIIAMQQSLSGLSNLTEKISIHDVILNAVKSVILDKHQIDVRIEIEPDINEFITDKSKLFQILTNLLANAKDSVLLHEANDSRKVVISIGRTEKNHIMIKINDNGIGIQKDNLDRIFSFGFTTKKNGHGFGLHCSAIYARDLGGTLYAESNGNGKGAQFVLDLPINPKTLSTR,failed
5,MTERKVSWLELFFDLIFVTAVASTTHLLLSVDNHPDKTAAYFGEYLLMVTPMFWAWVGQTMFFNRFGEKIKWPELYMLSQMFFLILMTASFDLTFSNTYYTFLIGYLGIRFITVIQYFVISKQLTGNAQKVALLLGSVFLLGVLTTATSVFFEGFARYLVMYLGIAVDIILPLFLAKTLRKVPVDFPHLAERFGLFVIITFGESIVAITTILVGHTLDLYTICYTLLGFLIICTLWASYFYSFEKIVDHHKVTHGQFLIYGHFFIIVSVMLLAVNLHLLFEGHLQRDVLLLLLFSSVAVFFISKQFVFAAHKKAEVSFSFWKDALLLLLLVGLFFVNLYINLPLFVSFVSIWICALVDLGLQFGTSRSVRM,failed
6,MTERLLVGVIVGSHGVRGLVRVKSFTQDEMALCDYGPLSDETGTRRFAVEVRNQAKGVVICQIPGVSDRTAADALKGTRLFLDRAALPADALEEDEYYHADLIGLPVDLVDGGRLGVVHSVHDFGAGDMLEVTLAQGRRSVLLPFTKAVVPLVDVKAGRLVADPPLGLLDDTRPPAGVEGEVEEDPGVGIDEDGDGKGGASLEHHHHHH,not failed
7,MTESTGSTSQEQQVRGETMPDWEKRFRAPRVSLPDWAEDAPHRALFVSNATGTYELYAWDRTTGEQRQVTDRPNGTTDGVLSPDGEWIWWFDDTDGDEFGIWRRQRFTGGGTADGPDEPAADGLEPSYPAGLAIGRDGGTAVVGRSTDEDGSTVHVVRAGQEPVEIYRHRESAGVGDLSHDGSLIAVEHTEHGDAMHSALRVLRLDGSTVAELDDTKGGSVELGLEVLGFAPVDGDTRLLIGHQRRGRWEPLVWDVASGEETDLALELPGDVGAEWYPDGSALLVAHSFEARSELFRYDLASRELVRVPTPAGTVSGATARPDGSVEYLWSSAAEPSVVRSTSGGIVLDPPGMKSPGSVPVEDVWVEGPGGRVHALVQRPAGASGPLPTVFDIHGGPTWHDSDSFAAGPAAWLDHGYAVVRVNYRGSTGYGREWTDALKHRVGLIELEDIAAVREWAVSSGLADPDRLILTGGSWGGYLTLLGLGTQPDAWTIGIAAVPVADYVTAYHDEMEALKAMDRTLLGGTPEEVPERFEASSPLTYVDAVKAPVYISAGVNDPRCPIRQVENYVERLTARDAVHEVYRYDAGHGSLVVDERIKQVRLELEFAERHLGR,failed
8,MTETRIKQLLGQMSLEEKVSILSGEDFWSVAAVERLGIGKLRVSDGPNGARGGGSLVGGVKSASFPVGIAIGSTWNVELVREIGAALADEVKSKGAHMLLAPTVNIHRSVTNGRNFECYSEDPILSAELAVSYITGLQEQGIGATIKHFVGNESEIERTTISSEVDERALREIYLIPFEWAVRKAHTWGIMSSYNRLNGTFTSEHDWLLGHVLRDEWHYDGIVMSDWFGSHSTAETVNAGLDLEMPGPTRDRGQKLVDAVNAGEVSLETLDRRVLAMLRLMERVGSLDDHRPHVEKAEDRPEHRALIRRAGAEAAVLLKNDGVLPLEGSGKIAVIGPNAKTAQIMGGGSAQLNAHYRISPWQGLVAALGEERLTYAKGCTNDRFEPLLRGVLDVDYFDNLTLSGEPVHRGTIEDAQTFWIGQVAEGKVDALHFSARVRGRFTPEASGEHNVGIYAAGFAKVYIDGKLVADAWTNWTKGRTFFEEGCDEVVGTITLEAGHAYDVTIEFCTKDFATLGLAAFACGIGHPLGDDAIAAAVEAARTAETALLFIGRNGEWDTEGSDLPAIVLPGRQNELVEAVAAVNPRTVVVLQSGGPVEMPWAGQVAAVVSAWYPGQEAGNAIADVLTGLAEPGGRLPQTFPVRWADNPAHSQDREVYPGLEGKVRYEESIFVGYRHYDKLGLTPLYPFGFGLGYTSFALSDLSVDASNFETEGTVSVTLNVTNTGDRVGSTVVQLYVSDTLSSAPRPSKELKAFAKVKLEAGASRGVTLSLDARAFAFFDAGSKSWLVEPGDFILRVGQSSADLPLTARITRTGAMHLPL,failed
9,MTEYNIALVGFGGVNRALAQLIAERNQAWKKQLGFSLKIVGISDLFLGSIVASQGLDAGLLSKLPATKGALAQLPGGQVEALNEQVIKDSGADIIAEATFTNPVDGEPASTFCRWALEQGKHVVTTNKGPIALHSAELKALAQRNLAAFEYEGAVMSGTPVIRMAKQSLAGSGLLGFEGILNGTSNFVLTRMEAGLGFAEAVAEAQALGYAEADPSADVEGFDVRLKVVILANELLDAQLTVSDVSCRGISGLTVKDLEQARAEGARWKLIGSAQRLADGSLQASVEPRLLPLAHPLAGIGGAINAVSFNTELLGAVTVSGPGAGRIETAFALLSDIIHIHQSRLAR,failed
10,MTFEDPSFWAALLTAATTAGAITILVALVRRNQAKGPDRRAREDAEIFLGLSDGLIVLDDGGRVSALNRAAQRMTGQEGEAAVGKSARRLLPGLESVLEGKDRLASSLGLWCRLPATGREEALASTLGALLSETTGPAGTRTVLVLRDISEQIRLTEVDDWLRVIDGHLLAGTSLGDLANDLCERVARAFGLPLLWIGVPRPEGLLVVGKGGSEAARLSAYPEGRGDEGTQGVAGRTLRSGRAQSDDAGEGWAAPTWAPGVPLGRAYCVGLRARGEVVAVLCLRGHGEAPSPALSRALEALGPRLGEAIVYERGQSLMRLQSAAIAAAANAIVITDGEGRVEWVNEAYHLLSGYERDQIIGTLPAVLAGPSAANPTAIEAWPTLRAGQVWRGEIHETHRDGRTYIVDKTITPIVDASGRLSHLVAVDEDVTARKKAEERIRYLSNYDTLTRLPNRVLFRDRLYQAVVQARRGHGGLAVMFIDLDQFSLVNDTLGHAAGDHLLMTIASRINAAAEEADTVARVGGDEFALIQTALTSADSAASLARRLIDVIRTPVDLGGREVVIGANVGIAIYPQDGTDPDNLMKNADMAMYRAVKSGDDSCCFFSNEMNAEAAVRLSLEEDLRRALDSGDQLFLHYQLQFCIESGRPVGAEALARWTHPTLGAIPPTRFIPVAEDSGLILALGDWVLGTALAEYARWRAAGCGRLTIAVNMSAVQFRQKGLVERVTDLLAQHGVPPEDLELELTESMLMQDADQAVAQLTALSQAGIRLSIDDFGTGYSSLGYLKLFRVDKLKVDQSFVRDVTEDGNDAVIARAIINLGHSLGLEVIAEGVETPEQMAYLRREGCDVVQGYLMAYPEPGETVARRLLALDALSAAPAAVVMSRSD,failed
11,MTFHKIFFVISLMLVVSLVNAVDYSVVDNSGDSTGGRRFRGEIGGISYGTQTLRSATDFVWRLFQQTNPSDRKSVTKITLFMENGDGVAYNSGNEIHFNVGYLAGVYRS,not failed
12,MTFHWKDLTPWRRIKGVAITILYLLFCIWAGPFWLIFLPLIVDYYFFHIIKWGWYKNIRNKTLRIICSWVADIIYCVVAVTFIFAFLFQNFAIPTSSLEKTLLIGDYLFVSKLSYGPRSPMTPLGVPLTHNTMPLTGGKSFSDKPLLPYKRLKGFGHVKEGDLVVFNFPAGDTVAVKQPNPDYYMWKKLVGREELWSNPDFYGEIVYRPVDRRDHYVKRCVGMPGQELSIRNNQIYIDGKEQRNPRNMQLNYLVRMSREMSVDLIDELGISYDDVRAASSEELKASVGSNLIDSASNQPQIIYHLPLTQGMLDKLQAEPSFVKAVEEPTPIGPLYPLEYETGWTRDNYGPIVIPAKGMTVRLTPLNLALYSRCIRNFEGNKLVQKADGTVLINGRPADSYTFKMDYYFMMGDNRHNSADSRYWGFVPEDHIVGKPVFIWLSLNKDKSLFGGKIRFGRMMRTVNAD,failed
13,MTFLPTSLKFFSSLSRASGAVWTEATKRKAPHKPLLLLAVLDLVHRGVITTPFIAVSGDLVELNELFNLYWRRIIPLGQTSSIAFPFSRLAREPFWELVPQPGKNITDAVINNTSSVSYLRKYALGAKLDDGLFRVMASGEGREALREALLLSCFSPEASAQLREQSIINREAFDYSRLLEEQAHLPLVKEIVEADNYRPTVRDQAFRKVVTSAYDHRCALCGIRIVTPDGHTVVEAAHIVPWSRSQNDDIRNGMALCRTCHWGFDEGMLGVSDNYTVITSRSIGIDPNFPGLLQTLSGRGIIPPADPDKFPAREYLAEHRRAWRL,failed
14,MTFNALRPVASKVIDPLADFFIRYEVSPDTVSIVSLICAFFAGLSFYYSPAYQELALLAGILVVFNSLFDALDGVIARKSNRATPRGDFLDHVIDRYSDVFIICSIFFAGYVSWQIGVAAIVGVLLTSYLGTQAQALNLGRYYGGIMGRADRLVVIILAAFANSVYPASIAGFPILGWAVILIAVTSHITAIQRIMYIWRRLD,failed
15,MTFPLALIAKNTPANSMIMTKLPSVKVKTEGYNPSVNVNELFAYVDLSGSEPGEHDYEVKVDPIPNIKIVEISPRVVTLQLEHHHHHH,not failed
16,MTFRKPPPTMKPTRSLSASLFSDPHPAAYLAAFAAVMATAVARLYLPEAFTAPSSFLLFVPAVLISAALGGVGPGVFGTTFAWAAVWWVTRDIPFDLVSGLSAAIFLSVGFGMAVGGGWFHAARRRAAAVNDHLRSILDTVPDAVVVIDRAGIMTSFSPAAQRMFGWSEAEAIGKNVSLLMPEPYQSAHDGYLDRYARTGEKRIIGAGRVVVGRRKDGSTFPMELAVGETRGPTPSFTGFIRDLTERQETETRLQELQNELVHVSRLTAMGEMASTLAHELNQPLSAIANLLTGSRRLMDRGREADQAKVRDAIDRAAAQALRAGEVIHRMRDFARRGASEREVESLSKLIEEASALALIGEKERQVDVRLKLDPKADDVFADRVQIQQVLLNLIRNGIDAMQAQEPRKRALLIRTGLTEEGWSEVSVADTGPGIAPEVLERLFQPFMTTKPQGMGVGLSISRSIIEAHGGRIWAEANPGGGALFRFTLPPAESLAGEKETIDD,failed
